Reference: paper PMC8694081 (Molecular Biology of the Cell, 2021)
Changes are numbered by the printed parent chain. In names and notes the source's numbering stands. Like-named read-outs stand apart in the source and are kept apart here. One block for each binder: values may come before it.

Assays:
ubiquitin [1] = target: T1, ubiquitin (UniProt P0CG48 1-76); assay: NMR titration
ubiquitin [2] = target: T1, ubiquitin; assay: NMR HSQC peak broadening and PRE
ubiquitin [3] = target: T1, ubiquitin; assay: NMR HSQC peak broadening and PRE; remark: listed apart in the source

Kd (ubiquitin [1]): ~31 µM
B1: HD-PTP V domain (residues 361-711), wild type (domain or fragment)
chain: VPMAAHEASSLYSEEKAKLLREMMAKIEDKNEVLDQFMDSMQLDPETVDNLDAYSHIPPQLMEKCAALSVRPDTVRNLVQSMQVLSGVFTDVEASLKDIRDLLEEDELLEQKFQEAVGQAGAISITSKAELAEVRREWAKYMEVHEKASFTNSELHRAMNLHVGNLRLLSGPLDQVRAALPTPALSPEDKAVLQNLKRILAKVQEMRDQRVSLEQQLRELIQKDDITASLVTTDHSEMKKLFEEQLKKYDQLKVYLEQNLAAQDRVLCALTEANVQYAAVRRVLSDLDQKWNSTLQTLVASYEAYEDLMKKSQEGRDFYADLESKVAALLERTQSTCQAREAARQQLLDRE

binding result (ubiquitin [2]): binds
B2: HD-PTP V domain, no-Cys, single cysteine at 368 (A368C), MTSL-labelled (domain or fragment)
chain: B1 chain with A8C, C65A, C268A, C337A
modifications: MTSL spin label on cysteine 368

Kd (ubiquitin [1]): 900 µM
B3: HD-PTP V domain Site1∆ (L371A, E374A, E375A) (domain or fragment)
chain: B1 chain with L11A, E14A, E15A

binding result (ubiquitin [2]): binds
B4: HD-PTP V domain lacking cysteine residues (C425A, C628A, C697A) (domain or fragment)
chain: B1 chain with C65A, C268A, C337A

binding result (ubiquitin [3]): binds
B5: HD-PTP V domain Site2∆ (E388A, D389A), single spin label at residue 368 (domain or fragment)
chain: B1 chain with A8C, E28A, D29A, C65A, C268A, C337A
modifications: MTSL spin label on cysteine 368

binding result (ubiquitin [3]): binds
B6: HD-PTP V domain Site2∆ (E388A, D389A), single spin label at residue 400 (S400) (domain or fragment)
chain: B1 chain with E28A, D29A, S40C, C65A, C268A, C337A
modifications: MTSL spin label on cysteine 400

binding result (ubiquitin [2]): binds
B7: HD-PTP V domain, no-Cys, S400C, MTSL-labelled (domain or fragment)
chain: B1 chain with S40C, C65A, C268A, C337A
modifications: MTSL spin label on cysteine 400
